Source: US20040235726A1, “Glucagon-like peptides (glp-1) and treatment of respiratory distress” (priority 2001, published 2004)
Where “and” joins values, the source holds several entries; their conditions need not be identical. Equal entries are not always repeated. Where no end group is shown, it is not given here.

biological target: T1, human GLP-1 receptor (Homo sapiens, UniProt P43220); assay: In vitro potency assay (GLP-1 receptor signaling, CRE-BLAM reporter); type: cell-based; conditions: HEK-293 Aurora CRE-BLAM cells expressing the human GLP-1 receptor; EC50-based potency relative to Val^8-GLP-1 (7-37)OH (=1.0); several values in a cell are repeat determinations
T1 construct: expressed in transfected cells; host or cells: HEK-293 Aurora CRE-BLAM cells
T1 sequence (P43220 24-463): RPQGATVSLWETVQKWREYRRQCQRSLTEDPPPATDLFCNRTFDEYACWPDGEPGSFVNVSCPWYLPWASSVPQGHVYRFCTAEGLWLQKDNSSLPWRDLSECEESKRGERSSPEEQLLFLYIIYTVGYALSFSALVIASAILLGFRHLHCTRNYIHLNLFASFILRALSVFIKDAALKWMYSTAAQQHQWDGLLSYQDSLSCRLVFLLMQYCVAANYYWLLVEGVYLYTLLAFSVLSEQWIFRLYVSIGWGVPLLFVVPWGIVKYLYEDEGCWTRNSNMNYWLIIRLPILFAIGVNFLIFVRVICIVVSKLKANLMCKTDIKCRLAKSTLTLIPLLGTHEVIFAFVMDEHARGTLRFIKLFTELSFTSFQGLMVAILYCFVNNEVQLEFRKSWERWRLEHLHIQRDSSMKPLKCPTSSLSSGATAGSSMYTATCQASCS
Source text: The extent of the induction of cAMP levels can then be measured using a cAMP response element which drives the expression of a reporter gene such as luciferase or beta lactamase.
These HEK-293 cells have stably integrated a DNA vector having a cAMP response element (CRE) driving expression of the β-lactamase (BLAM) gene. […] The assay is further described in Zlokarnik, et al. (1998) Science 279:84-88 (See also Example 3).
The day after seeding, the medium is replaced with plasma free medium.

Molecule	GLP-1 receptor activation relative to Val^8-GLP-1 (7-37) OH
Val^8-Tyr^18-Glu^22-GLP-1 (7-37) OH (HVEGTFTSDVSYYLEEQAAKEFIAWLVKGRG)	5.1 and 5.9
Val^8-Glu^30-GLP-1 (7-37) OH (HVEGTFTSDVSSYLEGQAAKEFIEWLVKGRG)	0.6 and 0.7
Val^8-Trp^16-Glu^22-GLP-1 (7-37) OH (HVEGTFTSDWSSYLEEQAAKEFIAWLVKGRG)	4.9 and 4.6
Val^8-Tyr^16-GLP-1 (7-37) OH (HVEGTFTSDYSSYLEGQAAKEFIAWLVKGRG)	2.6 and 2.5
Val^8-Tyr^16-Glu^22-GLP-1 (7-37) OH (HVEGTFTSDYSSYLEEQAAKEFIAWLVKGRG)	3.6 and 3.8
Val^8-Glu^22-Val^25-Ile^33-GLP-1 (7-37) OH (HVEGTFTSDVSSYLEEQAVKEFIAWLIKGRG)	4.9 and 5.8 and 6.7
Val^8-Lys^33-Asn^34-GLP-1 (7-37) OH	0.2
Val^8-Tyr^12-GLP-1 (7-37) OH (HVEGTYTSDVSSYLEGQAAKEFIAWLVKGRG)	1.7 and 1.8
Val^8-Glu^22-Ile^33-GLP-1 (7-37) OH (HVEGTFTSDVSSYLEEQAAKEFIAWLIKGRG)	4.7 and 3.8 and 3.4
Val^8-His^37-GLP-1 (7-37) OH (HVEGTFTSDVSSYLEGQAAKEFIAWLVKGRH)	0.7 and 1.2
Val^8-Glu^22-Val^25-GLP-1 (7-37) OH (HVEGTFTSDVSSYLEEQAVKEFIAWLVKGRG)	4.7 and 2.9

same assay, conditions: in vitro potency relative to Val^8-GLP-1 (7-37)OH

Molecule	potency higher than Val^8-GLP-1 (7-37)OH
Exendin-4 [reference compound]	approximately 5 fold
Val^8-Glu^22-GLP-1 (7-37) OH (HVEGTFTSDVSSYLEEQAAKEFIAWLVKGRG)	approximately 3 fold

biological target: human GLP-1 receptor (human, UniProt P43220 24-463); assay: cell-based or functional assay; conditions: not given

Molecule	GLP-1 receptor activation relative to Val^8-GLP-1 (7-37) OH
HVEGTFTSDVSSYLEGQAAKEFIAWLVKGGP-NH2 [Val^8-Gly^36-Pro^37-GLP-1 (7-37) NH2]	1.2 relative to Val^8-GLP-1 (7-37) OH
HVEGTFTSDVSSYLEGQAAKEFIAWLVGKRG-OH [Val^8-Gly^34-Lys^35-GLP-1 (7-37) OH]	0.7 relative to Val^8-GLP-1 (7-37) OH
HVEGTFTSDVSSYLEGQAAKEFIAWLKNGRG-OH [Val^8-Lys^33-Asn^34-GLP-1 (7-37) OH]	0.2 relative to Val^8-GLP-1 (7-37) OH
HVEGTFTSDVSSYLEKEAAKEFIAWLVKGRG-OH [Val^8-Lys^22-Glu^23-GLP-1 (7-37) OH]	0.8 relative to Val^8-GLP-1 (7-37) OH
HVEGTFTSDVSSYLEKQAAKEFIEWLVKGRG-OH [Val^8-Lys^22-Glu^30-GLP-1 (7-37) OH]	0.8 relative to Val^8-GLP-1 (7-37) OH
HVEGTFTSDVSSYLEGQAAKEFIAWLKVGRG-OH [Val^8-Lys^33-Val^34-GLP-1 (7-37) OH]	0.2 relative to Val^8-GLP-1 (7-37) OH
HVEGTFTSDLSSYLEGQAAEEFIAWLVKGRG-OH [Val^8-Leu^16-Glu^26-GLP-1 (7-37) OH]	0.5 relative to Val^8-GLP-1 (7-37) OH
HVEGTFTSDVSSYLEEKAAKEFIAWLVKGRG-OH [Val^8-Glu^22-Lys^23-GLP-1 (7-37) OH]	3.1 relative to Val^8-GLP-1 (7-37) OH
